Results from PMC9889334 (Nature Communications, 2022).

Target: the molecule itself
Test: SEC-SAXS; purified complexes loaded at 2.55 (CBKP1P2), 0.72 (CBKP1) and 3 mg/ml (CBKP2) on a Bio-SEC3 column; 20 mM Tris pH 8.5, 300 mM NaCl, 5 mM 2-mercaptoethanol, 5% glycerol

B1: CBKP1, four-subunit PaKEOPS complex (PaCgi121/PaBud32/PaKae1/PaPcc1) (complex)
chain 1: MTPKFKNFKHDNSGQVETYLFEVISKYTMLEIKTKFGKLCIAKVKLASESIERALNLCNDNCQIVSAKCHEEVIFATILAIKAFSSGRNTAKTIKGEILLRLAGVKQIKDAIKIIGARKGENLIIYFGVSDPCSSLKDFISSLGLREEPLKPCDEDEVKRGFERAAIIEAL
chain 2: MKLIKQGAEAKIYLAEFSELYFDYPIKVIVKERIKKRYRIPEIDLKLRKERTIREARILRRAKEFGVNVPYVFEVDTKNMIIVMEYIEGERLKELLEKLPMEERLKVCREVGRQIGKLHEAGIVHGDLTTSNMILREGKVYFIDFGLAEFDDTIEAQGVDLHLLKRAMESTHYKWFERGFEEVLKGYIEIRGEDKGREIREKIREIELRGRYRERSWITQ
chain 3: MLALGIEGTAHTLGIGIVSEDKVLANVFDTLTTEKGGIHPKEAAEHHARLMKPLLRKALSEAGVSLDDIDVIAFSQGPGLGPALRVVATAARALAVKYRKPIVGVNHCIAHVEITKMFGVKDPVGLYVSGGNTQVLALEGGRYRVFGETLDIGIGNAIDVFARELGLGFPGGPKVEKLAEKGEKYIELPYAVKGMDLSFSGLLTEAIRKYRSGKYRVEDLAYSFQETAFAALVEVTERAVAHTEKDEVVLVGGVAANNRLREMLRIMTEDRGIKFFVPPYDLCRDNGAMIAYTGLRMYKAGISFRLEETIVKQKFRTDEVEIVW
chain 4: MKPKRVQGKIVIEFPSEDIAEVVYTSVLYEHVSVPYRRSRVNFRREGRRIVLEIEANDSSAMRGTVNSYLRWIKVALDVLNI
  stoichiometry N: 2
